Measured values as given in paper PMC7914648 (Pharmaceuticals, 2021).
Entries after “also recorded” stand apart in the source; their conditions may differ.

What was measured:
[1] = Tissue distribution of An2-PAPTP and metabolites (liver, spleen, kidneys, heart) after i.v. injection; format: in vivo, mouse
Text: The total amount of An2-PAPTP and its metabolites, summarized in Table 3, is comprehensive of all the species having the characteristic psoralenic UV spectrum obtained by the overall extraction procedure (i.e., from organic solvent extraction and basic hydrolysis of the remaining pellet), and represents and underestimation of the real concentration in the tissue (see Section 4.7.3). This is because no recovery yield correction was applied, since it was impossible to identify most of the species extracted, and because PAPTPL extracted after high-pH hydrolysis of the pellet could come either from An2-PAPTP or from metabolites. For quantification in HPLC analysis, all the psoralenic species were assumed to have the same molar extinction coefficient as PAPTPL, an assumption justified by the near-identity observed for all the available psoralen-containing molecules.
(§1) The liver, spleen, kidneys, heart obtained from untreated mice were weighed and homogenized with PBS pH 7.4 (1 vol) with a potter. The pre-established amount of PAPTPL was added into tissue homogenates or blood and, after thorough vortexing, 5 vol of acetone were added and the sample was sonicated for 2 min. Subsequently, 5 vol of ACN containing 0.1% TFA were added and the sample was sonicated for 5 min. The sample was then centrifuged at 12,000× g for 7 min at 4 °C and the supernatant was collected, concentrated with a Hetovac VR-1, and analyzed via HPLC-UV.
as §1, with “Brain and liver” for “The liver, spleen, kidneys, heart”, “analyte” for “PAPTPL”, “homogenates” for “homogenates or blood”, “trifluoracetic acid (TFA)” for “TFA”
To quantify the amount of An2-PAPTP stuck in the tissue, the pellet remaining after the procedure described above was incubated with intermittent Vortexing at 60 °C for 3 h with PBS pH 12.5/ACN 1:1 and then centrifuged at 12,000× g for 7 min. HPLC-UV analysis of the supernatant, measuring PAPTPL hydrolyzed from the tissue, thus indirectly reflects the amount of An2-PAPTPL in the pellet (Scheme 3). Quantification was as described for PAPTPL.
A stock solution of the peptide-PAPTP conjugates was prepared in DMSO. TAT-PAPTP was administered at 8 and 5 μmol/kg bw and An2-PAPTP only at 5 μmol/kg bw. The calculated quantity of drugs was diluted from the stock solution in saline or mouse plasma to a final volume of 200 μL.

[2] = Preliminary brain levels after intraperitoneal An2-PAPTP; format: in vivo, mouse; settings: An2-PAPTP 5 µmol/kg bw i.p. in DMSO; sacrifice at 20 min or 1, 2, 4 h; four mice
Description: In preliminary tests An2-PAPTP was administered at 5 µmol/kg bw by the intraperitoneal (i.p.) route, using dimethylsulfoxide (DMSO) as the vehicle. […] Many brain-penetrating peptides bind to biomolecules such as proteins and cell structures such as membranes. Furthermore, the absence of a flowing bloodstream at the injection site may cause a poorly soluble molecule to remain confined in the vicinity of the point of delivery. […] Collectively, these preliminary results led to the adoption of the intravenous route. An2-PAPTP (5 µmoles/kg bw, in plasma) was thus administered by tail vein injection to mice.

[3] = Stability in blood (hydrolysis, PAPTPL release); format: in vitro ADME; settings: fresh heparinized C57BL mouse blood, 37 °C, 5 µM from 5 mM DMSO stock, HPLC-UV, % PAPTPL released relative to amount spiked, mean, n = 5 (An2-PAPTP) and 4 (TAT-PAPTP)
Description: C57BL mice were anesthetized and blood was withdrawn from the jugular vein and heparinized. Blood samples (1 mL) were spiked with compound (5 µM; dilution from a 5 mM stock solution in DMSO) and incubated at 37 °C for 4 h (the maximum period allowed by blood stability). Aliquots were taken after 10 min, 30 min, 1 h, 2 h, and 4 h before HPLC-UV analysis.
Each aliquot was treated as described above (Section 4.7.1). Compound stability in blood was expressed as % of PAPTPL released relative to the amount of An2-PAPTP and TAT-PAPTP spiked in the sample at time 0.

[4] = Aqueous solubility determination; format: physicochemical
Description: For TAT-PAPTP and An2-PAPTP, three distinct suspensions were prepared by diluting 25 mM stock solutions in DMSO to 100 μM, in 0.9% NaCl saline or water (DMSO < 0.4%). The suspensions were sonicated 5 min and immediately analyzed. The suspensions were then centrifuged at 12,000× g, 18 °C, for 1 and 2 h, and the supernatants were analyzed by HPLC/UV at the end of each centrifugation. An additional analysis was performed after 24 h of standing. The chromatographic peak areas were used to determine the concentration of the compound in the supernatants, based on calibration curves built using solutions in DMSO.

mouse Red Blood Cells = test: Haemolysis assay; format: cell-based; settings: 5 × 10^7 mouse erythrocytes in 1 mL PBS pH 7.4, 2, 1 or 0.5 µM, 15 min, absorbance 540 nm, n = 3
Description: Haemolysis studies were conducted as described in [72]. Briefly, freshly withdrawn blood samples were centrifuged at 1000× g for 10 min to obtain erythrocytes; the pellet was then washed thrice with sterile PBS (pH 7.4). Erythrocytes (5 × 10^7 cells in 1 mL of PBS for each experimental condition) were incubated with 2, 1 or 0.5 µM An2-PAPTP or TAT-PAPTP for 15 min. The samples were then centrifuged and absorbance (Abs) of the supernatant was measured at 540 nm. Triton X-100 1% and PBS were used as positive and negative control, respectively.
The percentage of haemolysis was calculated with the following equation:% haemolysis = [(Abssample − AbsPBS)/AbsTriton X-100 − AbsPBS)] × 100

[5] = An2-PAPTP 5 µmoles/kg bw i.v., all psoralenic species, 312 nm, no recovery correction, mean ± SEM, n = 5
[6] = An2-PAPTP i.v., found in one animal out of four
[7] = An2-PAPTP i.v., mean ± SEM, n = 4
[8] = An2-PAPTP i.v., mean ± SEM, n = 5
[9] = An2-PAPTP i.v., mean ± SEM, n = 6

Structure (SMILES): CC[C@H](C)[C@H](NC(=O)Oc1ccc(CCCOc2ccc([P+](CCCc3ccc(OCCCCOc4c5ccoc5cc5oc(=O)ccc45)cc3)(c3ccccc3)c3ccccc3)cc2)cc1)C(=O)N[C@H](C(=O)N[C@@H](Cc1ccccc1)C(=O)N[C@@H](Cc1ccccc1)C(=O)N[C@@H](Cc1ccc(O)cc1)C(=O)NCC(=O)NCC(=O)N[C@@H](CO)C(=O)N[C@@H](CCCNC(=N)N)C(=O)NCC(=O)N[C@@H](CCCCN)C(=O)N[C@@H](CCCNC(=N)N)C(=O)N[C@@H](CC(N)=O)C(=O)N[C@@H](CC(N)=O)C(=O)N[C@@H](Cc1ccccc1)C(=O)N[C@@H](CCCCN)C(=O)N[C@H](C(=O)N[C@@H](CCC(=O)O)C(=O)N[C@@H](CCC(=O)O)C(=O)N[C@@H](Cc1ccc(O)cc1)C(=O)O)[C@@H](C)O)[C@@H](C)O [An2-PAPTP]
- Heart Psoralenic Species (nmol/g Tissue), 15 min [1, 5]: 0.2 ± 0.1 nmol/g Tissue
- Kidney Psoralenic Species (nmol/g Tissue), 15 min [1, 5]: 5 ± 4 nmol/g Tissue
- Spleen Psoralenic Species (nmol/g Tissue), 15 min [1, 5]: 28 ± 9 nmol/g Tissue
- Liver Psoralenic Species (nmol/g Tissue), 15 min ([1]; An2-PAPTP 5 µmoles/kg bw i.v., all species with psoralenic UV spectrum, 312 nm, no recovery correction, mean ± SEM, n = 5): 23 ± 3 nmol/g Tissue
- degradation of the peptide chain by liver peptidases ([1]; An2-PAPTP 5 µmoles/kg bw i.v., liver, in vivo): degraded the peptide chain nearly completely in little more than one hour
- Heart Psoralenic Species (% of Administered Dose), 30 min, single animal [1, 6]: 0.07 % of Administered Dose
- Heart Psoralenic Species (nmol/g Tissue), 30 min, single animal [1, 6]: 0.36 nmol/g Tissue
- Kidney Psoralenic Species (% of Administered Dose), 30 min [1, 7]: 0.32 ± 0.07 % of Administered Dose
- Spleen Psoralenic Species (% of Administered Dose), 30 min [1, 7]: 0.27 ± 0.09 % of Administered Dose
- Heart Psoralenic Species (% of Administered Dose), 15 min [1, 8]: 0.07 ± 0.01 % of Administered Dose
- Kidney Psoralenic Species (% of Administered Dose), 15 min [1, 8]: 1.2 ± 0.8 % of Administered Dose
- Spleen Psoralenic Species (% of Administered Dose), 15 min [1, 8]: 1.2 ± 0.3 % of Administered Dose
- Kidney Psoralenic Species (% of Administered Dose), 60 min [1, 9]: 0.31 ± 0.03 % of Administered Dose
- Spleen Psoralenic Species (% of Administered Dose), 60 min [1, 9]: 0.8 ± 0.2 % of Administered Dose
- Heart Psoralenic Species (% of Administered Dose), 60 min ([1]; An2-PAPTP i.v., n = 6): 0 % of Administered Dose
- Heart Psoralenic Species (nmol/g Tissue), 60 min ([1]; An2-PAPTP i.v., n = 6): 0 nmol/g Tissue
- Liver Psoralenic Species (nmol/g Tissue), 30 min ([1]; as above, 30 min, n = 4): 17 ± 2 nmol/g Tissue
- Liver Psoralenic Species (nmol/g Tissue), 60 min ([1]; as above, 60 min, n = 6): 11 ± 3 nmol/g Tissue
- Kidney Psoralenic Species (nmol/g Tissue), 30 min ([1]; as above, n = 4): 1.3 ± 0.2 nmol/g Tissue
- Spleen Psoralenic Species (nmol/g Tissue), 30 min ([1]; as above, n = 4): 4.3 ± 1.4 nmol/g Tissue
- Kidney Psoralenic Species (nmol/g Tissue), 60 min ([1]; as above, n = 6): 1.2 ± 0.1 nmol/g Tissue
- Spleen Psoralenic Species (nmol/g Tissue), 60 min ([1]; as above, n = 6): 11 ± 3 nmol/g Tissue
- detection in brain after i.p. administration [2]: no An2-PAPTP or PAPTPL could be detected
- hydrolyzed in mouse blood over 4 h (PAPTPL released) [3]: about 60%
- solubility in 10 mM phosphate buffer ([4]; 10 mM phosphate buffer, supernatants after centrifugation, HPLC): precipitated
- solubility in 0.9% NaCl saline ([4]; 0.9% NaCl saline, kinetic, 25 mM DMSO stock diluted to 100 μM (DMSO < 0.4%), sonicated 5 min, centrifuged 12,000 × g 18 °C 1 and 2 h, supernatant HPLC/UV, detection limit 0.1 µM): precipitated in saline; also recorded: insoluble in saline
- solubility in water ([4]; water, kinetic, 25 mM DMSO stock diluted to 100 μM (DMSO < 0.4%), sonicated, centrifuged 12,000 × g 18 °C, supernatant HPLC/UV): above 100 μM
- haemolysis (release of haemoglobin) (mouse Red Blood Cells): did not induce a measurable release of haemoglobin
